Kd data for two molecules are collected here from PMC8038991, “R-catcher, a potent molecular tool to unveil the arginylome” (Cellular and Molecular Life Sciences: CMLS, 2021).

Test in all cases: ITC; protein 0.05 mM, 4-mer peptide 1 mM as injectant, B buffer (50 mM Tris-HCl pH 7.5, 200 mM NaCl), 25 °C, Microcal Auto-ITC200; single site-binding model
(Isothermal titration calorimetry measures the heat released or taken up as one component is titrated into another.)

Experiment [1] has as its target purified wild type ZZ fragment p62 (122-175) of the ITC table (Fig. 3b) (human) (UniProt Q13501).
Experiment [2] addresses purified N132D ZZ fragment p62 (122-175) of the ITC table (Fig. 3b) (human) (UniProt Q13501).
Experiment [3] concerns the target GST-ZZ_(122-175), wild type, bacterially expressed (human) (UniProt Q13501).

As a reminder, the Kd is a measure of binding affinity in units of concentration. Regarding YIFS [YIFS tetrapeptide (Nt-Tyr)], the Kd in experiment [1] is 20.7 µM; in experiment [2], 107 µM; in experiment [3], 16.1 µM.
Regarding RIFS [RIFS tetrapeptide (Nt-Arg)], the Kd in experiment [1] was 6.9 µM; in experiment [2], 2.85 µM; in experiment [3], 4.4 µM.
